This is an account of results in article PMC3696110, “Hsp70 Oligomerization Is Mediated by an Interaction between the Interdomain Linker and the Substrate-Binding Domain” (PLoS ONE, 2013).

For series [1] the following is noted: cited from earlier work; for Protein in oligomeric state: ref [30]. An excerpt:
It has been shown, for example, that up ...

The next series deals with ∆LSBD641. The experiment in a line: Fluorescence competition assay of dansylated and non-dansylated NR peptide. It is filed as binding, human. The procedure: Fluorescence competition assay. Samples containing 50 μM ∆LSBD641 and 2 μM dansylated-NR peptide (D-NR) in Tris 50 mM, pH 7.4, 150 mM KCl, 5 mM MgCl2 were incubated in the presence of different concentrations of non-dansylated NR peptide (ND-NR; 0, 50 and 200 μM) for 1h at room temperature and the dansyl fluorescence emission spectrum of each sample was recorded from 400 to 630 nm after excitation at 330 nm. The intensity at the maximum emission wavelength of three different samples for which ten spectra were recorded was averaged, and the fraction of bound D-NR peptide was then determined experimentally from the reduction in the fluorescence signal in relation to the reference sample without ND-NR peptide for which the fraction of bound D-NR peptide is known (83% of the D-NR peptide is bound in this conditions according to the affinity measured by fluorescence titration; see Figure […]
The fraction of bound D-NR peptide was theoretically calculated for each sample according to a competitive model where the two ligands bind to the same substrate-binding pocket in the chaperone and assuming different values for the affinity of the ND-NR peptide for ∆LSBD641 […]
fluorescence titration was 8 ± 2 μM).
From the mass balance of the total protein concentration (PT) in a two-ligands competitive model and substituting the concentration of each complex (PL1 and PL2, corresponding to the complex with D-NR and ND-NR peptide, respectively) by the expression obtained from the definition of the different dissociation constants, a third-order polynomial expression (A·P3 + B·P2 + C·P + D = 0) of the free concentration of protein (P) is obtained, where the coefficients of the different terms are:
(also on this page, place not known: dansylated - m M excitati on -NR sig nal ND -NR D -NR D -NR D -NR substrate -binding ND -NR K d D -NR ( PT) two -ligands substitut ing ( PL1 D -NR ND -NR third -order (A· P3 D ( P) Tdd TdTddTdTddTTTdd PKKD PKPkKLKLKKCPLLKKBA 21 211221212121 ;;;1 −= −−++=−+++==) […]
(1 picture or pasted object on this page, not shown here)

Series [2] in a line: nESI-MS relative populations of oligomeric forms. In kind it is physicochemical, human. Conditions: 6-15 µM protein, 150 mM ammonium acetate, pH 7.4, estimated error 5% (SD of 3-4 independent experiments). The procedure: Prior to MS analysis, samples were buffer exchanged into 150 mM ammonium acetate, pH 7.4, using Micro Bio-spin 6 columns (Bio-Rad, Digilab Division, Cambridge, MA, USA). For all the experiments protein concentrations ranging from 6 to 18 µM were used. In the case of the substrate binding experiments, proteins were analyzed in the presence of a 1: 1 molar ratio of the NR peptide; this substrate concentration, lower than in the SEC experiments, was chosen to ensure adequate resolution of the various charge state series, which is critical for unambiguous assignment of substrate-bound states. Due to suppression effects during nESI ionization, a relatively limited set of molar ratios could be investigated by in this way.
nESI-MS spectra were obtained according to a previously published protocol on an orthogonal time-of-flight mass spectrometer with a Z-spray source (LCT, Waters, Manchester, UK) in positive ion mode using the following parameters: capillary voltage, 1500 V; sample cone voltage, 120 V (unless otherwise specified); extraction cone voltage, 1V; and ion transfer stage pressure, 8.8 mbar. Spectra were calibrated externally using a 33 mg/ml solution of cesium iodide. Data were acquired and processed with MassLynx software (Waters, Manchester, UK), and are shown with minimal smoothing and without background subtraction. The relative abundances of the different oligomeric states were estimated from the intensities of the most abundant charge states for each construct and are expressed as a percentage of the total intensity.

The nature of series [3]: Analytical SEC relative populations of oligomeric forms. It is filed as physicochemical, human. The note with it: Superdex 75, 4 °C; for Dimer population / Monomer population / Total oligomer population: 50 mM Tris pH 7.4, 150 mM KCl. The procedure:
Analytical SEC was performed at 4 °C using a Superdex 75 10/300 GL column (GE Healthcare LifeSciences, Little Chalfont, U.K.), which had previously been calibrated using a mixture of standard proteins (Gel Filtration LMW Calibration Kit; GE Healthcare LifeSciences, Little Chalfont, U.K.). Typically, samples of the various constructs contained 70 µM of protein in 50 mM Tris buffer at pH 7.4, with 150 mM KCl, 5 mM MgCl2 and were incubated for 15 min (unless otherwise specified) at room temperature before being loaded onto the column for analysis. To evaluate the reversibility of the oligomerization process, the different elution peaks obtained for each protein variant were subsequently analyzed after concentrating the different fractions using AmiconUltra-0.5, Ultracel-3 Membrane, 3 kDa (Millipore, Bedford, MA, USA). A similar analysis was also performed at 6 µM concentration for all the protein variants to allow for a direct comparison between the results obtained by SEC and MS experiments.
The influence of substrate binding on the oligomerization properties of all the variants was examined by using the well-characterized Hsp70 substrate, the NR peptide (NRLLLTG, Genemed Synthesis Inc., San Antonio, TX, USA). A 14-fold excess of the peptide was added in each case to a fresh protein sample, incubated for 1 h at room temperature, unless otherwise specified, and then loaded onto the Superdex 75 10/300 GL column for analysis. The relative quantities of the different protein species were estimated by analysing the chromatographic profile using a Gaussian function for each elution peak (OriginPro 8, Originlab, Northampton, MA, USA) and measuring the relative area under each peak.

The nature of series [4]: Secondary structure content from far-UV CD. It is filed as physicochemical, human. Conditions: K2D software; 20 µM protein, 7 mM Tris pH 7.4, 170 mM KCl, 5 mM MgCl2; 25 °C. The procedure:
Far-UV CD spectra for all protein variants were recorded using a Jasco J-810 spectropolarimeter equipped with a Peltier holder, using a 0.1 cm path length cuvette. Typically, samples contained 20 µM protein in 7 mM Tris buffer at pH 7.4, containing 170 mM KCl and 5 mM MgCl2. The far-UV CD spectra of all the variants in their native, thermally denatured and refolded states were recorded from 198 to 250 nm, and the spectrum of the buffer was systematically subtracted from the spectra of all protein samples. The secondary structure content was estimated from the far-UV CD spectrum for each protein variant using K2D software.

Series [5] is described as follows: Thermal denaturation monitored by far-UV CD. In kind it is physicochemical, human. The procedure: Protein structural stability was analyzed by monitoring the CD signal at 222 nm upon thermal denaturation. Thermal runs were performed from 5 to 90 °C at a rate of 1 °C. min^-1. Data points were acquired every 0.1 °C with a response time of 2 s and a bandwidth of […]. After thermal denaturation, each protein sample was cooled to the starting temperature, and a second denaturation curve recorded in order to analyse the degree of reversibility of the denaturation process. Analysis of the thermal unfolding curves was performed assuming a three-state unfolding model.

Another series concerns peptide substrates. Also on record: method as in PMID 10876246. Conditions: two different peptide substrates; ref [3]; cited from earlier work.
Where [6] appears, read: 70 µM protein, 5 mM MgCl2, 15 min at room temperature, estimated error 3.5% (SD of 3-4 independent experiments).
Setting [7] is: 6-15 µM protein, 5 mM MgCl2, estimated error 3.5% (SD of 3-4 independent experiments).

Several values for one entry are separate records, joined by “and”; a condition that tells them apart may be missing. Equal values may be shown once. Read-outs that look alike come from different tables or passages of the source.

On to “BiP/Grp78: endoplasmic reticulum resident Hsp70 chaperone”, for which the “Molecules existing as oligomers” value in series [1] (in mammalian cells, ref [29]) was 40-50%; in series [1] (in vitro, ca. 5 µM protein, ref [28]) it was 40-50%.
As to “dansylated NR peptide: NR peptide N-terminally labeled with dansyl fluorophore”, the “Fraction of bound dansylated NR peptide, ∆LSBD641:ND-NR 1:1, experimentally determined” value with ∆LSBD641 (50 μM ∆LSBD641, 2 μM D-NR, 50 μM ND-NR, Tris 50 mM pH 7.4, 150 mM KCl, 5 mM MgCl2, 1 h room temperature, average of three samples) came out at 0.62 ± 0.1. In the series with ∆LSBD641 (50 μM ∆LSBD641, 2 μM D-NR, 200 μM ND-NR, Tris 50 mM pH 7.4, 150 mM KCl, 5 mM MgCl2, 1 h room temperature, average of three samples), the “Fraction of bound dansylated NR peptide, ∆LSBD641:ND-NR 1:4, experimentally determined” value is reported as 0.35 ± 0.1. In the series on ∆LSBD641 (50 μM ∆LSBD641, 2 μM D-NR, no ND-NR, according to affinity from fluorescence titration), the D-NR peptide bound was determined as 83%. Also, the “Affinity of dansylated vs non-dansylated NR peptide” value in the series on ∆LSBD641 (fluorescence competition assay) is “essentially the same affinity”.
In the case of “FL-Hsp70: full-length human Hsp70 1A, GenBank ID NP005336, recombinant N-hexa-His-tagged”, in series [2], the Monomer population is 98%, the Total oligomer population is 2% and the Trimer population is listed as 0%. Also, in series [3] (setting [6]), the Dimer population is listed as 7% and the Monomer population is given as 93%. The Oligomeric species in series [3] (220 µM protein, 50 mM Tris pH 7.4) worked out at 35%. Besides, in series [3] (setting [7]), the Dimer population was 1%, the Monomer population is on record as 99% and the Total oligomer population is recorded as 1%. Further, in series [4], the “Random-coil content estimated from far-UV CD” value is recorded as 32%, the “α-helix content estimated from far-UV CD” value was 45% and the “β-sheet content estimated from far-UV CD” value was 23%.
Regarding “SBD556: truncated human Hsp70 (384-556), lacks helices C, D and E and C-terminal disordered region; L542Y mutation”, in series [2], the Dimer population is given as 16%, the Monomer population is listed as 82% and the Trimer population is listed as 2%. Moreover, in series [3] (setting [6]), the Dimer population is reported as 7%, the Monomer population was 93% and the Total oligomer population is 7%. Further, in series [3] (setting [7]), the Dimer population is recorded as 3%, the Monomer population was 97% and the Total oligomer population is 3%. Besides, the “∆Hm, 1st transition” value in series [5] (CD 222 nm, 20 µM protein, 7 mM Tris pH 7.4, 170 mM KCl, 5 mM MgCl2, three-state fit (C-term two-state), SE of fit) turned out to be 63.9 ± 1.9 kcal/mol. Further, the “∆Hm, 2nd transition” value in series [5] (CD 222 nm, 20 µM protein, 7 mM Tris pH 7.4, 170 mM KCl, 5 mM MgCl2, three-state fit, SE of fit) was 85.4 ± 2.6 kcal/mol. For the same substance, in series [5] (CD 222 nm, 5 to 90 °C at 1 °C/min, 20 µM protein, 7 mM Tris pH 7.4, 170 mM KCl, 5 mM MgCl2, three-state fit (C-term two-state), SE of fit), the “Tm, 1st transition” value was determined as 46.8 ± 0.1 °C. The “Tm, 2nd transition” value in series [5] (CD 222 nm, 5 to 90 °C at 1 °C/min, 20 µM protein, 7 mM Tris pH 7.4, 170 mM KCl, 5 mM MgCl2, three-state fit, SE of fit) was 64.5 ± 0.1 °C and 64.5 ± 0.2 °C. For the same substance, in series [5] (far-UV CD, second denaturation curve after cooling), the “Reversibility of thermal unfolding” value is recorded as “fully reversible”. In addition, in series [4], the “Random-coil content estimated from far-UV CD” value was 54%, the “α-helix content estimated from far-UV CD” value is listed as 21% and the “β-sheet content estimated from far-UV CD” value is 25%.
On to DnaK: bacterial Hsp70 homologue, for which the “Protein in oligomeric state” value in series [1] (0.5 mg/ml (ca. 7 µM)) is recorded as “approximately 20%”; in series [1] (16 mg/ml (ca. 230 µM)), 70%.
For “DnaK 2-538: DnaK mutant protein lacking the C-terminal 100 residues, i.e. helices C-E and part of helix B”, in the series on peptide substrates, the “Association rate constants vs wild type DnaK” value is reported as “unaffected” and the “Dissociation rate constants vs wild type DnaK” value is “considerable increase”.
